Results published in publication PMC5758883, “Analysis of the natively unstructured RNA/protein-recognition core in the Escherichia coli RNA degradosome and its interactions with regulatory RNA/Hfq complexes” (Nucleic Acids Research, 2017).

T1: RNase E 603–850 with a C-terminal hexahistidine tag (Escherichia coli, UniProt P21513 603-850)
T1 construct: also called Rne; source: E. coli BL21 (DE3), co-expressed with RhlB (pRSFDuet-1) with or without enolase (pET11-a); alone: RhlB and enolase removed on the column with 8 M urea; not shown: His6, C-terminal, kept
T1 sequence (looked up): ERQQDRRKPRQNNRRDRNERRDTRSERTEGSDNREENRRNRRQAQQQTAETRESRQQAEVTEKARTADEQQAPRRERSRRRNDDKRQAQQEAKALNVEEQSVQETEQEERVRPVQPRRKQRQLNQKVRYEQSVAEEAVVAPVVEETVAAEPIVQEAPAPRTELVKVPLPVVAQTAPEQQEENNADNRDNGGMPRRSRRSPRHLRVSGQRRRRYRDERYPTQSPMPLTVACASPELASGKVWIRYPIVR

B1: enolase (enzyme, Escherichia coli)
chain: MSKIVKIIGREIIDSRGNPTVEAEVHLEGGFVGMAAAPSGASTGSREALELRDGDKSRFLGKGVTKAVAAVNGPIAQALIGKDAKDQAGIDKIMIDLDGTENKSKFGANAILAVSLANAKAAAAAKGMPLYEHIAELNGTPGKYSMPVPMMNIINGGEHADNNVDIQEFMIQPVGAKTVKEAIRMGSEVFHHLAKVLKAKGMNTAVGDEGGYAPNLGSNAEALAVIAEAVKAAGYELGKDITLAMDCAASEFYKDGKYVLAGEGNKAFTSEEFTHFLEELTKQYPIVSIEDGLDESDWDGFAYQTKVLGDKIQLVGDDLFVTNTKILKEGIEKGIANSILIKFNQIGSLTETLAAIKMAKDAGYTAVISHRSGETEDATIADLAVGTAAGQIKTGSMSRSDRVAKYNQLIRIEEALGEKAPYNGRKEIKGQA
notes: E. coli enolase; No tag is named for enolase in either construct; also called glycolytic enzyme enolase; enolase dimer; source: E. coli Rosetta (DE3), pETDuet, co-expressed and co-purified with His6-AR2–EBS
B2: DEAD-box helicase RhlB (enzyme, Escherichia coli, UniProt P0A8J8 1-421, looked up)
chain: MSKTHLTEQKFSDFALHPKVVEALEKKGFHNCTPIQALALPLTLAGRDVAGQAQTGTGKTMAFLTSTFHYLLSHPAIADRKVNQPRALIMAPTRELAVQIHADAEPLAEATGLKLGLAYGGDGYDKQLKVLESGVDILIGTTGRLIDYAKQNHINLGAIQVVVLDEADRMYDLGFIKDIRWLFRRMPPANQRLNMLFSATLSYRVRELAFEQMNNAEYIEVEPEQKTGHRIKEELFYPSNEEKMRLLQTLIEEEWPDRAIIFANTKHRCEEIWGHLAADGHRVGLLTGDVAQKKRLRILDEFTRGDLDILVATDVAARGLHIPAVTHVFNYDLPDDCEDYVHRIGRTGRAGASGHSISLACEEYALNLPAIETYIGHSIPVSKYNPDALMTDLPKPLRLTRPRTGNGPRRTGAPRNRRRSG
notes: E. coli DEAD-box helicase RhlB; HDX-MS covers both RecA-like domains and the tail 400–421, so probably the whole protein; also called RhIB

What was measured:
[1] = biological target: T1, RNase E 603–850 with a C-terminal …; assay: SEC-MALS; co-expressed, co-purified ternary and binary complexes loaded at 5.6 and 4.0 mg/ml on Superdex 200 10/300; 50 mM Tris–HCl pH 7.5, 100 mM NaCl, 50 mM KCl, 5 mM MgCl2, 2 mM DTT; settings: both partners purified
[2] = biological target: the molecule itself; assay: native MS; native ESI and ion-mobility mass spectrometry of the co-purified ternary and binary complexes

Binder | stoichiometry N [1] | stoichiometry N [2]
B1 | 2 | 2
B2 | 1 | 
